Among the data in PMC6018088 are binding values, retold here.

Data set [1] has as its target T1, Fur (Vibrio cholerae O1 El Tor C7258?) (UniProt P0C6C8).
T1 sequence: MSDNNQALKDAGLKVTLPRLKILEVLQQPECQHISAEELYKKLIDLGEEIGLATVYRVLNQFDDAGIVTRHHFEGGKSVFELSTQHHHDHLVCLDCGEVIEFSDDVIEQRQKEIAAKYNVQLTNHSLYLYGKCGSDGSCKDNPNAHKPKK
As to the kind of experiment: DNase I footprinting. As to conditions: DNase I footprinting with FAM/HEX-labeled probes and RQ1 DNase I; buffer, salt, pH and temperature not given (cites earlier work).

Data set [2] concerns the target T2, HapR (Vibrio cholerae O1 El Tor C7258?) (UniProt Q4F6W7).
T2 sequence: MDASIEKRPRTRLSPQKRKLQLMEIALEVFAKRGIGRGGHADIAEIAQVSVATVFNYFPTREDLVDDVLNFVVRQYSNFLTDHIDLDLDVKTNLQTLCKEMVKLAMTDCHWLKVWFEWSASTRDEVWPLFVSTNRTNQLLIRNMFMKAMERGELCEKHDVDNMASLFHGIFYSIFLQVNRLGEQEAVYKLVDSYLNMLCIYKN
Put plainly: DNase I footprinting. Particulars: […]; buffer, pH and temperature not given ([…].

Consider “GTAAAACGACGGCCAGTCTTATGTGTAAGCGTATTGAAATCTTTAGAGTTAAAATGGAGAACTTAACTTTTTTTAAATTATTCAATTAATCTTTAAATCAACCTTATAAATTAATTCAGACTAAATTAGTTCAAATTAAATTAGGCTCATTAAATAATATGAATATCAGTAATTGTTATTTTAGGAAGAAATTATTTTACAGCAAATAAAAAGTCTTTAGAGGCTAAAATCTGTGATCCGGTCATAGCTGTTTCCTG (double strand) [hlyA promoter fragment]”, for which the binding entry in data set [1] and in data set [2] was “binds” in each case.
